US20200171161A1 (Bicycle, published 2020)
Numbered stars: 1 amine (or outer) side, 2 acyl side, 3 side chain; on linkers, the order of the positions; unused ones are H or OH. Bridge positions count the residues as written; N and C are the ends. Square brackets hold non-standard residues; d marks the D form. Ends that are not written are not given here. * marks the point of attachment. DOTA = O=C(O)CN1CCN(CC(=O)O)CCN(CC(=O)*)CCN(CC(=O)O)CC1; Phe(4-Br) = N[C@@H](Cc1ccc(Br)cc1)C(=O)O; 1Nal = N[C@@H](Cc1cccc2ccccc12)C(=O)O; TBMB = c1c(C[*:1])cc(C[*:3])cc1C[*:2]; Tle = CC(C)(C)[C@H](N)C(=O)O; βAla = NCCC(=O)O; Sar = CNCC(=O)O

B1: 17-69-07-N248, DOTA-A-(17-69-07) D-Ala1 1Nal4 D-Ala5 4BrPhe9 tBuGly11 (peptide)
chain: {DOTA}-AC[dA]NE[1Nal][dA]CEDF[Phe(4-Br)]D[Tle]C-NH2
modifications: linker 2-8-15 via TBMB
SMILES: C[C@H](NC(=O)CN1CCN(CC(=O)O)CCN(CC(=O)O)CCN(CC(=O)O)CC1)C(=O)N[C@H]1CSCc2cc3cc(c2)CSC[C@H](NC(=O)[C@@H](C)NC(=O)[C@H](Cc2cccc4ccccc24)NC(=O)[C@H](CCC(=O)O)NC(=O)[C@H](CC(N)=O)NC(=O)[C@@H](C)NC1=O)C(=O)N[C@@H](CCC(=O)O)C(=O)N[C@@H](CC(=O)O)C(=O)N[C@@H](Cc1ccccc1)C(=O)N[C@@H](Cc1ccc(Br)cc1)C(=O)N[C@@H](CC(=O)O)C(=O)N[C@@H](C(C)(C)C)C(=O)N[C@H](C(N)=O)CSC3
B2: 17-69-07-N252, Ac-(17-69-07) D-Ala1 1Nal4 D-Ala5 4BrPhe9 tBuGly11 (peptide)
chain: Ac-C[dA]NE[1Nal][dA]CEDF[Phe(4-Br)]D[Tle]C-NH2
modifications: linker 1-7-14 via TBMB
SMILES: CC(=O)N[C@H]1CSCc2cc3cc(c2)CSC[C@H](NC(=O)[C@@H](C)NC(=O)[C@H](Cc2cccc4ccccc24)NC(=O)[C@H](CCC(=O)O)NC(=O)[C@H](CC(N)=O)NC(=O)[C@@H](C)NC1=O)C(=O)N[C@@H](CCC(=O)O)C(=O)N[C@@H](CC(=O)O)C(=O)N[C@@H](Cc1ccccc1)C(=O)N[C@@H](Cc1ccc(Br)cc1)C(=O)N[C@@H](CC(=O)O)C(=O)N[C@@H](C(C)(C)C)C(=O)N[C@H](C(N)=O)CSC3
B3: 17-69-07-N241, bAla-Sar10-A-(17-69-07) D-Ala1 1Nal4 D-Ala5 tBuGly11 (peptide)
peptide: [βAla][Sar][Sar][Sar][Sar][Sar][Sar][Sar][Sar][Sar][Sar]AC[dA]NE[1Nal][dA]CEDFYD[Tle]C-NH2
modifications: linker 13-19-26 via TBMB; N-terminus assumed
SMILES: C[C@H](NC(=O)CN(C)C(=O)CN(C)C(=O)CN(C)C(=O)CN(C)C(=O)CN(C)C(=O)CN(C)C(=O)CN(C)C(=O)CN(C)C(=O)CN(C)C(=O)CN(C)C(=O)CCN)C(=O)N[C@H]1CSCc2cc3cc(c2)CSC[C@H](NC(=O)[C@@H](C)NC(=O)[C@H](Cc2cccc4ccccc24)NC(=O)[C@H](CCC(=O)O)NC(=O)[C@H](CC(N)=O)NC(=O)[C@@H](C)NC1=O)C(=O)N[C@@H](CCC(=O)O)C(=O)N[C@@H](CC(=O)O)C(=O)N[C@@H](Cc1ccccc1)C(=O)N[C@@H](Cc1ccc(O)cc1)C(=O)N[C@@H](CC(=O)O)C(=O)N[C@@H](C(C)(C)C)C(=O)N[C@H](C(N)=O)CSC3
notes: also called βAla-Sar10-A-C(D-Ala)NE(1Nal)(D-Ala)CEDFYD(tBuGly)C

What was measured:
[1] = biological target: T1, human MT1-MMP hemopexin domain (hemopexin-like repeats, residues Cys319-Gly511), N-terminally His6-tagged … (human, UniProt P50281 319-511); test: Kd, method not named in table (FP competition by the methods)
T1 construct: range 319-511; Secreted from HEK293 cells; also called hemopexin protein; MT1-MMP (=MMP-14); not shown: N-terminal His6 tag from pEXPR-IBA42 vector

[2] = biological target: T1, human MT1-MMP hemopexin domain …; test: FP competition vs MT1-MMP hemopexin domain (tracer not given)
Experimental: (§1) Subsequently, the non-fluorescent competitor bicyclic peptide (usually just the bicycle core sequence) is titrated, such that it displaces the fluorescent tracer from the target protein. The displacement of the tracer is measured and associated with a drop in fluorescence polarisation. The drop in fluorescence polarisation is proportional to the fraction of target protein bound with the non-fluorescent titrant, and thus is a measure of the affinity of titrant to target protein.

[3] = biological target: T2, dog MT1-MMP hemopexin domain (dog); test: FP competition, dog hemopexin domain
T2 construct: domain: hemopexin domain
Experimental: as §1

Row | Binder | Kd [2] [nM] | Kd [3] [nM] | also measured
1 | B1 |  |  | Kd [1]: 0.5 nM
2 | Ac-CYNEFGCEDFYD[Tle]C-NH2 (linker 1-7-14 via TBMB) [17-69-07-N100, Ac-(17-69-07) tBuGly11] | 1.56 |  | 
3 | B2 | 0.8 |  | 
4 | G[Sar][Sar][Sar][Sar][Sar][Sar][Sar][Sar][Sar][Sar]ACYNEFGCEDFYDIC-NH2 (linker 13-19-26 via TBMB) [17-69-07-N219, G-Sar10-A-(17-69-07) (non-stabilised with spacer)] |  | 0.9 | 
5 | B3 |  | 1.4 | 
